Measured values reported in patent publication US20020164609A1 (SCHERING, published 2002).

What was measured:
[1] = target: T1, Flag-tagged human WSX-1/TCCR on Ba/F3 cells (F-hWSX-1) (human, UniProt Q6UWB1 33-636); assay: flow cytometry on BaF3 cells expressing F-hWSX-1, two hours incubation
T1 construct: Retroviral pMX construct expressed on the surface of Ba/F3 cells; also called hNR30; F-tagged WSX-1/TCCR
T1 sequence: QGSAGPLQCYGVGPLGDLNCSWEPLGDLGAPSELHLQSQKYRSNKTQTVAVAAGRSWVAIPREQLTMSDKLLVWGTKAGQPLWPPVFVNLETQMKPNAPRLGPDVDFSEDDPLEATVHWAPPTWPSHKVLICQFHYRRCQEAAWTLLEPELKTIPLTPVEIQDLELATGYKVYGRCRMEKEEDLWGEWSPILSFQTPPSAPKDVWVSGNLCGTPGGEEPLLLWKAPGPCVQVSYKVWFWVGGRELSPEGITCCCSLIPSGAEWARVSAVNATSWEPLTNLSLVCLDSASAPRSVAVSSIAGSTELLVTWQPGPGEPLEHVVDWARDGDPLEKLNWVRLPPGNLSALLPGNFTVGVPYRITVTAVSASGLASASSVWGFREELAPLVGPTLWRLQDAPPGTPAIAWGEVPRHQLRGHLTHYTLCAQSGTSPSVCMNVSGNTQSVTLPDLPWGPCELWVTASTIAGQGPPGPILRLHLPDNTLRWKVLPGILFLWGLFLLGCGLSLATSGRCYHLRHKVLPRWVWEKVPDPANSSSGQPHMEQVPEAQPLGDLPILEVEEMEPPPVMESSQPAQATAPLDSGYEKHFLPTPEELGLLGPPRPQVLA

[2] = target: T2, Flag-tagged mouse WSX-1 on BaF3 cells (F-mWSX-1) (mouse, UniProt O70394 25-623); assay: flow cytometry on mWSX-1-expressing BaF3 cells
T2 construct: whole, on cells; Retroviral pMX construct expressed on the surface of Ba/F3 cells
T2 sequence (looked up): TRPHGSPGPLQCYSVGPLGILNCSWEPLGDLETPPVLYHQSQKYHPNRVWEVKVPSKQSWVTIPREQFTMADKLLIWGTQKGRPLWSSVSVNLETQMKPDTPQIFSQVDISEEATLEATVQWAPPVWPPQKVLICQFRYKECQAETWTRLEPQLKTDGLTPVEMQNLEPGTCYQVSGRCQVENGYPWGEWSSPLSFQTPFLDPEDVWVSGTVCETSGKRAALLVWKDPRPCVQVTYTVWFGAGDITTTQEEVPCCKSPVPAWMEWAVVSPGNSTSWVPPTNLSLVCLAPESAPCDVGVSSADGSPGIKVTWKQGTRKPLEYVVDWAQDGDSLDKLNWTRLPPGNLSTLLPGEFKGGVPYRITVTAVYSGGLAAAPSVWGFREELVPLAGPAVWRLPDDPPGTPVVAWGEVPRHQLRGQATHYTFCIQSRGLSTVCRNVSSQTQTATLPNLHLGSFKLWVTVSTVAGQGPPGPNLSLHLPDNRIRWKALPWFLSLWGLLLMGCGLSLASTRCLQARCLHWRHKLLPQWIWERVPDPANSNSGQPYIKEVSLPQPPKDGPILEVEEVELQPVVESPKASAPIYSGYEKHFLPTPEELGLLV

[3] = target: T3, soluble human WSX-1/TCCR with C-terminal RGSH6 tag (shWSX-1-R) (human, UniProt Q6UWB1 33-516); assay: co-immunoprecipitation and western blot; F-hEBI3 alone against shWSX-1-R supernatant
T3 construct: Produced in HEK293T supernatants; also called shNR30R; soluble hWSX-1-R
T3 sequence: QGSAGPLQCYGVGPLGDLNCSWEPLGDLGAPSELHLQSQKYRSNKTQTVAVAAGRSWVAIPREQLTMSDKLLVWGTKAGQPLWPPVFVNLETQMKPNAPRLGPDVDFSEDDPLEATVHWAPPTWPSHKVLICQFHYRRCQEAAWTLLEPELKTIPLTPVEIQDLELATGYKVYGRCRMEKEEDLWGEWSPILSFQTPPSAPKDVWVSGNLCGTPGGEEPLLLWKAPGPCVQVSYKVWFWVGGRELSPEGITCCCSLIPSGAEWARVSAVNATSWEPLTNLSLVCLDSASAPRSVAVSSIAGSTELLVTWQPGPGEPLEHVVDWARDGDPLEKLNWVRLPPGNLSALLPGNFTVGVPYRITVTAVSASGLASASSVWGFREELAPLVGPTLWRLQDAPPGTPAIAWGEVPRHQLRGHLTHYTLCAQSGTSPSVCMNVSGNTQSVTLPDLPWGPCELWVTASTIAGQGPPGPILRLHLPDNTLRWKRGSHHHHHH
Experimental: The primary pricipitates were washed and then incubated with HEK293T cell supernatants containing shWSX-1-R. Secondary precipitates were separated by SDS-PAGE and subjected to western blot. Precipitaited proteins were visualized by ECL using antibodies against the respective protein tags.

B1: human EBI3-Ig fusion (hEBI3-Ig) (Fc fusion)
chain: RKGPPAALTLPRVQCRASRYPIAVDCSWTLPPAPNSTSPVSFIATYRLGMAARGHSWPCLQQTPTSTSCTITDVQLFSMAPYVLNVTAVHPWGSSSSFVPFITEHIIKPDPPEGVRLSPLAERHVQVQWEPPGSWPFPEIFSLKYWIRYKRQGAARFHRVGPIEATSFILRAVRPRARYYVQVAAQDLTDYGELSDWSLPATATMSLGK
notes: Secreted fusion protein; also called EB133-Ig (so in the source); not shown: Ig part from the pME18S-Ig vector
**Q.** Does B1 bind [1]?
**A.** no binding

B2: E-tagged mouse IL-D80 (mIL-D80-E) (ligand)
chain: FPTDPLSLQELRREFTVSLYLARKLLSEVQGYVHSFAESRLPGVNLDLLPLGYHLPNVSLTFQAWHHLSDSERLCFLATTLRPFPAMLGGLGTQGTWTSSEREQLWAMRLDLRDLHRHLRFQVLAAGFKCSKEEEDKEEEEEEEEEEKKLPLGALGGPNQVSSQVSWPQLLYTYQLLHSLELVLSRAVRDLLLLSLPRRPGSAWDS
notes: also called mp28-E; mouse p28; not shown: E-tag from the pCDM8-etag vector
**Q.** Does B2 bind [2]?
**A.** no binding

B3: mouse EBI3-Ig fusion (mEBI3-Ig) (Fc fusion, UniProt O35228 19-228, looked up)
chain: YTETALVALSQPRVQCHASRYPVAVDCSWTPLQAPNSTRSTSFIATYRLGVATQQQSQPCLQRSPQASRCTIPDVHLFSTVPYMLNVTAVHPGGASSSLLAFVAERIIKPDPPEGVRLRTAGQRLQVLWHPPASWPFPDIFSLKYRLRYRRRGASHFRQVGPIEATTFTLRNSKPHAKYCIQVSAQDLTDYGKPSDWSLPGQVESAPHKP
notes: mature; Secreted fusion protein; not shown: Ig part from the pME18S-Ig vector
**Q.** Does B3 bind [2]?
**A.** no binding

B4: Flag-tagged human EBI3 (F-hEBI3) (other)
chain: B1 chain
notes: Mature portion of human EBI3 cloned into pFlagCMV-1, produced in HEK293T cells; also called human Epstein-Barr virus-induced gene 3; not shown: N-terminal Flag tag from pFlagCMV-1
**Q.** Does B4 bind [3]?
**A.** no binding
